Data taken from publication PMC7566454, “Sorcin is an early marker of neurodegeneration, Ca^2+ dysregulation and endoplasmic reticulum stress associated to neurodegenerative diseases” (Cell Death & Disease, 2020).

Assays:
human Sorcin [1] = biological target: T1, human Sorcin (human, UniProt P30626 1-198); test: SPR; FastStep (SensiQ Pioneer); human Sorcin amine-coupled to a COOH5 chip (2000 RU); peptides 1.56-100 μM; 20 mM Hepes pH 7.4, 150 mM NaCl, 0.005% P20, 100 μM CaCl2; best fits with 2 sites
T1 construct: Sorcin, human
T1 sequence (looked up): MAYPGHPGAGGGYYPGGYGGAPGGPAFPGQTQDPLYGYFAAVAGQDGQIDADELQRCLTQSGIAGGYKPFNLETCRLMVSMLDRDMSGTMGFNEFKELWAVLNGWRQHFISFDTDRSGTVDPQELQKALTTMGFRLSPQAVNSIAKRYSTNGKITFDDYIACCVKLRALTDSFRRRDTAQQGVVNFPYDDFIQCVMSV

human Sorcin [2] = biological target: T1, human Sorcin; test: SPR; OneStep as a6 but in buffer with 1 mM EDTA (HBS-PE); conditions: both partners purified
human Sorcin [3] = biological target: T1, human Sorcin; test: SPR; OneStep (SensiQ Pioneer); GST-Sigma-1 receptor (1-138) amine-coupled to a COOH5 chip (125 RU), signal on GST (80 RU) subtracted; Sorcin up to 5 μM; 20 mM Hepes pH 7.4, 150 mM NaCl, 0.005% P20 with CaCl2 (500 μM in the results, 100 μM in the methods); fit with 1 site; conditions: both partners purified

A Kd (human Sorcin [1]) of 120 nM was found for “RyR2 peptide corresponding to calmodulin-binding site CaMBD2” in this work.

B1: RyR2 peptide corresponding to calmodulin-binding site CaMBD3 (peptide)
peptide: ALRYNVLTLVRMLSLKSLKKQMKRMKKMTVK
notes: source: synthetic peptide (Biomatik, purity > 90%)
A Kd (human Sorcin [1]; both partners purified) of 480 nM was found for B1 in this work.

B2: RyR2 peptide corresponding to calmodulin-binding site CaMBD1 (peptide)
peptide: FRYNEVMQALNMSAALTARKTREFR
notes: as for B1
A Kd (human Sorcin [1]; both partners purified) of over 10000 nM was found for B2 in this work.

B3: GST-Sigma-1 receptor (cytosolic domain, residues 1-138) (domain or fragment, UniProt Q99720 1-138, looked up)
chain: MQWAVGRRWAWAALLLAVAAVLTQVVWLWLGTQSFVFQREEIAQLARQYAGLDHELAFSRLIVELRRLHPGHVLPDEELQWVFVNAGGWMGAMCLLHASLSEYVLLFGTALGSRGHSGRYWAEISDTIISGTFHQWRE
notes: Sigma-1 receptor, 'cytosolic domain' residues 1-138, cloned in frame with GST in pGEX4T1; pGEX4T1 puts GST at the N-terminus (surmised); also called Sigma-1 receptor (1–138); source: E. coli BL21(DE3), purified (GSTrap HP)
A Kd (human Sorcin [2]) of 12000 nM and a Kd (human Sorcin [3]) of 720 nM were found for B3 in this work.
